In PMC10442075 one finds fold increase in KM for PKA phosphorylation of GSK3β data, which are given here for one substance.

The target in test [1] is catalytic subunit of mouse PKA (mouse) (UniProt P05132).
Test [2] shares this target. The source holds these as a separate data set.

Sequence of unphosphorylated GSK3β (Glycogen Synthase Kinase 3β) (P49841 whole entry): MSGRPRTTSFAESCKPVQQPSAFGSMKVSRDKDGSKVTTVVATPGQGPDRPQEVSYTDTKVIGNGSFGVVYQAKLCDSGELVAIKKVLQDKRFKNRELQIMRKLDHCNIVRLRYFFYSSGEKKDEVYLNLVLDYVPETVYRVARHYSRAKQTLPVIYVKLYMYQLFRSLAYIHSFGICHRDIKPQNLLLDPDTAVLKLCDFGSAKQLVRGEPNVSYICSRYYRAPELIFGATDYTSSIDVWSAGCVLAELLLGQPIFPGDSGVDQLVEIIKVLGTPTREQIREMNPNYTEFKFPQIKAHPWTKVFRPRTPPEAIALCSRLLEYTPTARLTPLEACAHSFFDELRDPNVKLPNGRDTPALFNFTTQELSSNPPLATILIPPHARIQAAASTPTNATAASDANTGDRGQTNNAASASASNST

“unphosphorylated GSK3β (Glycogen Synthase Kinase 3β) (from UniProt P49841 1-420) (enzyme)” yielded a fold increase in KM for PKA phosphorylation of GSK3β at Ser9 (20 nM PKA) on addition of 500 nM full-length Axin in test [1] of 4 fold. In test [2], this substance returned a fold increase in KM for PKA phosphorylation of GSK3β at Ser9 on addition of the Axin (381-407) peptide of 7 fold.
